Results published in patent publication US20140038900A1 (INSTITUT NATIONAL DE LA SANTE ET DE LA RECHERCHE MEDICALE …, published 2014).

Biological target: heat-shock protein 70 (HSP70) (UniProt P0DMV8 1-641)
Assay: co-immunoprecipitation and Western blot, HCT116 cells
Protocol: Transfected cells were first lysed in lysis buffer (50 mM Hepes (pH 7.6), 150 mM NaCl, 5 mM EDTA and 0.1% NP40) followed by immunoprecipitation using GFP-tag antibody. Immunoprecipitates were separated in a 10% SDS-polyacrylamide gel and then transferred to PVDF membranes using a wet transfer apparatus (BioRad, Hercules, Calif., USA). Membranes were first probed overnight using primary antibodies: HA-tag antibody was from Covance (Eurogentec, Angers, France), 14-3-3 from Santa-Cruz (TebuBio, Le Perray en Yvelines, France) and GFP-tag antibody from Millipore (Molsheim, France).

heat-shock protein 70 (HSP70), sequence (P0DMV8 whole entry): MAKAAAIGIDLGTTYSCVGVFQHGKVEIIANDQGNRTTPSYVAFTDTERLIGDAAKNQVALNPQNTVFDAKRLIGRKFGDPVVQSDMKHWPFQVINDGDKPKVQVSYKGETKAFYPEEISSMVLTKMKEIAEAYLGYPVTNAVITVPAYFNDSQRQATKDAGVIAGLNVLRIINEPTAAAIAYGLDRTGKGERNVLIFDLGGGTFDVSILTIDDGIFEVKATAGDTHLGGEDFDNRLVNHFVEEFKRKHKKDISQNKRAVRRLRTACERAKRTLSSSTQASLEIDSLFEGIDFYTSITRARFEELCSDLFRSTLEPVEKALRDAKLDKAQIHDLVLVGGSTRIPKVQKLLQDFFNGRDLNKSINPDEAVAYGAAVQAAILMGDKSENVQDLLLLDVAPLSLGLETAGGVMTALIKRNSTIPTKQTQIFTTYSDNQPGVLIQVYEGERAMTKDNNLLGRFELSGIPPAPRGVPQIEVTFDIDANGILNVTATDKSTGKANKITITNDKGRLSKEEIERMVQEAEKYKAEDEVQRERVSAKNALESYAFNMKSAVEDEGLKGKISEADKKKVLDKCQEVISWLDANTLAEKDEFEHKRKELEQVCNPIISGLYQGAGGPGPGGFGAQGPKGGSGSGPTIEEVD

binding result: no binding
B1: mutated HSP110 lacking exon 9 (HSP110delE9), GFP-tagged (other)
chain: MSVVGLDVGSQSCYIAVARAGGIETIANEFSDRCTPSVISFGSKNRTIGVAAKNQQITHANNTVSNFKRFHGRAFNDPFIQKEKENLSYDLVPLKNGGVGIKVMYMGEEHLFSVEQITAMLLTKLKETAENSLKKPVTDCVISVPSFFTDAERRSVLDAAQIVGLNCLRLMNDMTAVALNYGIYKQDLPSLDEKPRIVVFVDMGHSAFQVSACAFNKGKLKVLGTAFDPFLGGKNFDEKLVEHFCAEFKTKYKLDAKSKIRALLRLYQECEKLKKLMSSNSTDLPLNIECFMNDKDVSGKMNRSQFEELCAELLQKIEVPLYSLLEQTHLKVEDVSAVEIVGGATRIPAVKERIAKFFGKDISTTLNADEAVARGCALQC
notes: Made by PCR from the GFP-HSP110 vector and cloned into the EGFp C2 vector; also called HSP110deIE9; HSP110ΔE9; not shown: GFP tag from the EGFp C2 vector into which the mutant HSP110 cDNA was cloned
